Results as given in publication PMC4205851, “Protein-tyrosine phosphorylation interaction network in Bacillus subtilis reveals new substrates, kinase activators and kinase cross-talk” (Frontiers in Microbiology, 2014).

Target: T1, Strep-tagged MinD (B. subtilis 168, UniProt Q01464 1-268)
T1 construct: MinD ATPase of B. subtilis 168, PCR fragment in a pQE-30 vector with the His6-tag replaced by the strep-tag; Pre-labelled with Strep-Tactin conjugated to horse radish peroxidase for the far-Western
T1 sequence (looked up): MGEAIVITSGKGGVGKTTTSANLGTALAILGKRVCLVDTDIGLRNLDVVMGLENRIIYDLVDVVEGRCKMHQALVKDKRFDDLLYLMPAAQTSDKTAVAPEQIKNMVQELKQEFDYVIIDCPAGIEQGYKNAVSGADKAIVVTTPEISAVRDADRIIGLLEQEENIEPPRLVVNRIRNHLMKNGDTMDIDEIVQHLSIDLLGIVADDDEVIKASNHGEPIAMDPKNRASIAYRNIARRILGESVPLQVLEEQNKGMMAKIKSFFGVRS
Experiment: far-Western; PtkA, MinC and TkmA separated by 12% SDS-PAGE, transferred to nitrocellulose and renatured; probed with Strep-tagged MinD labelled with Strep-Tactin-HRP in TBS-T (50 mM Tris pH 7.5, 150 mM NaCl, 0.05% Tween 20) with 1% BSA; AEC staining
Conditions: both partners purified

binding result: binds
B1: MinC (purified) (natural protein, B. subtilis 168, UniProt Q01463 1-226, looked up)
chain: MKTKKQQYVTIKGTKNGLTLHLDDACSFDELLDGLQNMLSIEQYTDGKGQKISVHVKLGNRFLYKEQEEQLTELIASKKDLFVHSIDSEVITKKEAQQIREEAEIISVSKIVRSGQVLQVKGDLLLIGDVNPGGTVRAGGNIFVLGSLKGIAHAGFNGNNQAVIAASEMLPTQLRINHVLNRSPDHIQKGNEMECAYLDTDGNMVIERLQHLAHLRPDLTRLEGGM
notes: MinC of B. subtilis 168
